Results: article PMC9402439, “Reconstitution of a telomeric replicon organized by CST”

B1: 9xTEL (ssDNA)
DNA: TTAGGGTTAGGGTTAGGGTTAGGGTTAGGGTTAGGGTTAGGGTTAGGGTTAGGG
B2: 15xTEL (ssDNA)
DNA: TTAGGGTTAGGGTTAGGGTTAGGGTTAGGGTTAGGGTTAGGGTTAGGGTTAGGGTTAGGGTTAGGGTTAGGGTTAGGGTTAGGGTTAGGG

Biological target: CTC1 (CST subunit);STN1 (CST subunit);TEN1 (CST subunit);Polα-primase, endogenous, co-purified with CST (Homo sapiens;Homo sapiens;Homo …, UniProt Q2NKJ3;Q9H668;Q86WV5;P09884;Q14181;P49642;P49643 …, |||)
Assay: EMSA; Kd,app shown only in figure; CST EMSA: 20 mM HEPES-NaOH pH 8.0, 150 mM NaCl, 2 mM MgCl2, 0.2 mM EGTA, 0.1% NP-40, 10% glycerol, 1 mM DTT, 2 h on ice, 0.7% agarose 1x TBE gel at 4 °C; POT1-TPP1N EMSA: C-strand synthesis buffer, 30 min at 30 °C
Conditions: protein: recombinant;recombinant;recombinant;native; tags: N-terminal 3xFLAG;N-terminal Myc;N-terminal HA;; copies: 1;1;1;1;1;1;1; label: 5'-32P; folds into G-quadruplex in KCl and NaCl, not LiCl

| Binder | binding result |
| --- | --- |
| B1 | binds |
| B2 | binds |
